Experimental findings from patent US20220411504A1 (Janssen / Centocor, published 2022) are described below.

Sequences and labels used below:
T1: CD3W147 (homodimeric CD3εγ-Fc) (human, biotinylated)
T1 construct: also called recombinant CD3
T1 chain: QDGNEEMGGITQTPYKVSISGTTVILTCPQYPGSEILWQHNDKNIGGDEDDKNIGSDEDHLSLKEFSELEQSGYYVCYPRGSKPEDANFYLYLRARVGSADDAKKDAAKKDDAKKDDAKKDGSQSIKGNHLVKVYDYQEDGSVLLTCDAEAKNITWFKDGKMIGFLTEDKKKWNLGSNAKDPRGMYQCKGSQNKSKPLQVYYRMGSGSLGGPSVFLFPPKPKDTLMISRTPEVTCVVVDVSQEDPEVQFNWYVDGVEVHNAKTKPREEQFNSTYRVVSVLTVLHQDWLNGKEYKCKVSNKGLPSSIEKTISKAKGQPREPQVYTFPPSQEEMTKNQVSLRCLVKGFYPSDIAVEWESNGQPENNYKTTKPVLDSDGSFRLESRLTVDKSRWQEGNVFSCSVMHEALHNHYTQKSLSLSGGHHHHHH

B1: MHGB669 (antibody, human IgG1, kappa, V domains shown)
VH: QVQLQQSGPGLVRPSQTLSVTCAISGDSVSSNSASWNWIRQSPSRGLEWLGRTYYRSEWFNDYAVSVKSRVTINPDTSKNQLSLQLNSVIPEDTAVYYCAREARIGVAGKGFDYWGQGTLVTVSS
VL: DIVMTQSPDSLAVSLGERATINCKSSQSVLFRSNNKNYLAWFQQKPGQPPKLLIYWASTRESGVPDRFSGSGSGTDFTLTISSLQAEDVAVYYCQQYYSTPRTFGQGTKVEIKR
notes: IgG1
B2: MHGB694 (antibody, human IgG1, kappa, V domains shown)
VH: EVQLLESGGGLVQPGGSLRLSCAASGFTFSSYAMHWVRQAPGKGLDWVSGISGSGFSTYYVDSVKGRFTISRDNSKHTLYLQMNSLRAEDTAVYYCAKDNLVAGTVFDYWGQGTLVTVSS
VL: not shown
notes: IgG1
B3: MHGB688 (antibody, human IgG1, kappa, V domains shown)
VH: EVQLLESGPGLVKPSQTLSLTCVISGDSVSSNRAAWNWIRQSPSRGLEWLGRTYYRSKWYNDYAVSVKSRITINSDTSKNQISLQLNSVTPEDTAVYYCARVRPGIPFDYWGQGTPVTVSS
VL: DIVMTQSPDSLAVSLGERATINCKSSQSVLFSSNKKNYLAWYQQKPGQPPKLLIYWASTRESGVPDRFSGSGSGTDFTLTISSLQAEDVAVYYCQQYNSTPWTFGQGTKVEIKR
notes: IgG1
B4: MHGB738 (antibody, human IgG1, kappa, V domains shown)
VH: B3 VH with E1Q, L5Q, E6Q, V23A, S75P
VL: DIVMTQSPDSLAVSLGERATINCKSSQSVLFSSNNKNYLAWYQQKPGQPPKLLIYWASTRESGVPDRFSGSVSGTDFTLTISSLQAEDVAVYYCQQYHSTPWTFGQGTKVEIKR
notes: IgG1; also called GL optimized B688
B5: MHGB672 (antibody, human IgG1, kappa, V domains shown)
VH: QVQLQQSGPGLVKPSQTLSLTCAISGDSVSSNRAAWNWIRQTPSRGLEWLGRTYYRSEWYNDYAVSVKSRITINPDTSKNQFSLQLNSVTPEDTAVYYCARVRAAVPFDYWGQGTLVTVSS
VL: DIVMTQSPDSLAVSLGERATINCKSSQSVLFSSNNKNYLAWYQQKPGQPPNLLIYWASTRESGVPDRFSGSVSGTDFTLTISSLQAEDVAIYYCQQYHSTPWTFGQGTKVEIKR
notes: IgG1
B6: MHGB668 (antibody, human IgG1, kappa, V domains shown)
VH: QVQLQQSGPGLVKPSQTLSLTCAISGDSVSNNSAAWNWIRQSPSRGLEWLGRTYYRSKWYNDYAVSVKSRITINPDTSKNQFSLQLNSVTPEDTAVYYCARYGSGTLLFDYWGQGTLVTVSS
VL: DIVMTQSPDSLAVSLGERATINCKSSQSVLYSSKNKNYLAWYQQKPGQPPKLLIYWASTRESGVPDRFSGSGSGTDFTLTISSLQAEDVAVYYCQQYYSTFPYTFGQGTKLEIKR
notes: IgG1
B7: MHGB687 (antibody, human IgG1, kappa, V domains shown)
VH: QLQLQESGPGLVKPSETLSLMCTVSGGSITSSSYYWGWIRQPPGKGLEWIGNIYYSGTTYYNPSLKSRVTISVDTSKNQFSLKLSSVTAADTAVYYCAAGARDFDSWGQGSLVTVSS
VL: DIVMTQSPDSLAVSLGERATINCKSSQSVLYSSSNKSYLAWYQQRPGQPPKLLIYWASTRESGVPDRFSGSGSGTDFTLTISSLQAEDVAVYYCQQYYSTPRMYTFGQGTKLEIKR
notes: IgG1
B8: CD3W243-HL-E.c. (scFv)
scFv: EVQLVESGGGLVKPGGSLRLSCAASGFTFSRYNMNWVRQAPGKGLEWVSSISTSSNYIYYADSVKGRFTFSRDNAKNSLDLQMSGLRAEDTAIYYCTRGWGPFDYWGQGTLVTVSSGTEGKSSGSGSESKSTDIQMTQSPSSLSASVGDRVTITCRARQSIGTAIHWYQQKPGKAPKLLIKYASESISGVPSRFSGSGSGTDFTLTISSVQPEDFATYYCQQSNSWPYTFGQGTKLEIKGPGGQHHHHHHGAYPYDVPDYAS
notes: E. coli supernatant
B9: CD3W247-HL-E.c. (scFv)
scFv: B8 scFv with K181Y, V210L, N224G
notes: E. coli supernatant
B10: CD3W246-HL-E.c. (scFv)
scFv: B8 scFv with N224G
notes: E. coli supernatant
B11: CD3W244-HL-E.c. (scFv)
scFv: B8 scFv with K181Y, N224G
notes: E. coli supernatant

Numbering of substitutions follows the chain as printed.

One experiment has as its target T2, MHGW8 (B2m-3(G4S)-HLA-G1-G4S-Avi) (human, biotinylated (Avi tag) in the blocking assay).
T2 construct: Single chain β2m-HLA-G1; also called soluble HLA-G1 extracellular domain; recombinant biotinylated HLA-G1
The experiment in a line: flow cytometry competition: blocks MHGW8-dextramer binding to ILT2 on HEK293T cells (competitor ILT2). A general note: A flow cytometer gives signals particle by particle.
What is called EC50 is the midpoint of the concentration-response curve. A lower EC50 goes with a more potent agent. Molecule B1 showed an EC50 of 1.7 µM.
In turn, B2 had an EC50 of 0.644 µM.
On to B3, for which it took 1.72 µM to reach a half-maximal effect (EC50).
The same measure, in the same setting: next, B4: 0.0016 µM; B5: 2.12 µM.

A further experiment deals with T3, HLA-G on cells (K562-HLA-G and HLA-G expressing tumor cells) (human).
T3 construct: whole, on cells; also called HLA-G1
The experiment in a line: flow cytometry, IgG1 mAb on cells expressing HLA-G.
For B6, the “GeoMean fluorescence (maximum value)” value was 591000.
On the same count and under the same terms, next, B1: 616000.
Same read-out and setting: the value for B2 was 473000.
As for B3, the “GeoMean fluorescence (maximum value)” value was 482000.
On the same count and under the same terms, next, B7: 528000; B5: 522000.

The next experiment addresses T1, CD3W147 (homodimeric CD3εγ-Fc). The experiment in a line: ELISA, E. coli supernatant (heated to 60° C., cooled) on biotinylated CD3W147. In general terms: In an ELISA, binding on a coated surface is turned into a signal by an enzyme label.
In the case of B8, the binding result is on record as “binds”.
Same read-out and setting: the value for B9 was “binds”.
Regarding B10, the binding result is reported as “binds”.
Consider B11, for which the binding result was “binds”.

The target of a further experiment is T2, MHGW8 (B2m-3(G4S)-HLA-G1-G4S-Avi). The experiment in a line: SPR, mAb captured by goat anti-human Fc, MHGW8 flowed.
Usually Kd stands for the equilibrium constant for the complex coming apart. A word on the koff: it is a measure of how fast the partners let go of each other. Higher therefore signals a short-lived complex. For orientation: kon means the rate constant with which the complex forms. Low values mean slower complex formation, high ones faster complex formation. The molecule B1 yielded a Kd of 0.00144 µM, a koff of 0.000453 s⁻¹ and a kon of 315000 M⁻¹ s⁻¹.
The like results for B2 were, in that order, 0.00115 µM, 0.0024 s⁻¹ and 2.08e+06 M⁻¹ s⁻¹.
B3 had a Kd of 0.0004 µM, a koff of 0.000263 s⁻¹ and a kon of 658000 M⁻¹ s⁻¹.
Regarding B4, the Kd came to 0.000139 µM. In other words, the sub-nanomolar range.
B7 yielded a Kd of 0.000809 µM, a koff of 0.000153 s⁻¹ and a kon of 189000 M⁻¹ s⁻¹.
The like results for B5 were, in that order, 0.00055 µM, 0.00179 s⁻¹ and 3.25e+06 M⁻¹ s⁻¹.

For another experiment, the target named is T4, Human CD3 epsilon (CD3ε) of the T cell receptor complex on cells (human, UniProt P07766 23-207).
T4 construct: On Jurkat cells and primary human (pan) T cells; also called T-cell surface glycoprotein CD3 epsilon chain; T3E
T4 sequence (P07766 23-207 limits assumed, one chain of several): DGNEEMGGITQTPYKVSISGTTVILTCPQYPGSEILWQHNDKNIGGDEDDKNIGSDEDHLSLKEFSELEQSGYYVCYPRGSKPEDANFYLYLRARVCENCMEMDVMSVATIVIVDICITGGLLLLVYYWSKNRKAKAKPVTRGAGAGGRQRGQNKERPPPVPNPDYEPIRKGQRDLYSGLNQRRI
The experiment in a line: flow cytometry, E. coli supernatant on human T cells.
For the molecule B8, the “MFI (n = 2)” value was 111000.
Take B9: the “MFI (n = 2)” value worked out at 111000.
Same read-out and setting: next, B10: 154000; B11: 166000.

The target of another experiment is T2, MHGW8 (B2m-3(G4S)-HLA-G1-G4S-Avi). The experiment in a line: flow cytometry competition: blocks MHGW8-dextramer binding to ILT4 on HEK293T cells (competitor ILT4).
B1 yielded an EC50 of 1.59 µM.
On to B2, for which a half-maximal effect (EC50) was put at 0.2 µM.
B3 came in with an EC50 of 1.42 µM.
Same read-out and setting: the value for B4 was 0.0016 µM.
Still for that read-out and setting: next, B7: 1.86 µM; B5: 1.61 µM.
